The values below come from patent US20210317225A1 (Genmab, published 2021).

B1: CD40-001-FEALxCD137-008-FEAR (bispecific antibody, human IgG1, kappa)
heavy 1: EVQLQQSGPDLVKPGASVKISCKTSGYTFTEYIMHWVKQSHGKSLEWIGGIIPNNGGTSYNQKFKDKATMTVDKSSSTGYMELRSLTSEDSAVYYCTRREVYGRNYYALDYWGQGTLVTVSSASTKGPSVFPLAPSSKSTSGGTAALGCLVKDYFPEPVTVSWNSGALTSGVHTFPAVLQSSGLYSLSSVVTVPSSSLGTQTYICNVNHKPSNTKVDKRVEPKSCDKTHTCPPCPAPEFEGGPSVFLFPPKPKDTLMISRTPEVTCVVVAVSHEDPEVKFNWYVDGVEVHNAKTKPREEQYNSTYRVVSVLTVLHQDWLNGKEYKCKVSNKALPAPIEKTISKAKGQPREPQVYTLPPSREEMTKNQVSLTCLVKGFYPSDIAVEWESNGQPENNYKTTPPVLDSDGSFLLYSKLTVDKSRWQQGNVFSCSVMHEALHNHYTQKSLSLSPGK
light 1: DIQMTQTTSSLSASLGDRVTITCSASQGINNYLNWYQQKPDGTVKLLIYYTSSLHSGVPSRFSGSGSGTDYSLTISNLEPEDIATYYCQQYSNLPYTFGGGTKLEIKRTVAAPSVFIFPPSDEQLKSGTASVVCLLNNFYPREAKVQWKVDNALQSGNSQESVTEQDSKDSTYSLSSTLTLSKADYEKHKVYACEVTHQGLSSPVTKSFNRGEC
heavy 2: QSLEESGGRLVTPGTPLTLTCTASGFSLSSYDMSWVRQAPGKGLEYIGYISSSGNTYYASWAKSRFTISKTSTTVDLKITSPTTEDTATYFCAREGDYWDFNLWGPGTLVTVSSASTKGPSVFPLAPSSKSTSGGTAALGCLVKDYFPEPVTVSWNSGALTSGVHTFPAVLQSSGLYSLSSVVTVPSSSLGTQTYICNVNHKPSNTKVDKRVEPKSCDKTHTCPPCPAPEFEGGPSVFLFPPKPKDTLMISRTPEVTCVVVAVSHEDPEVKFNWYVDGVEVHNAKTKPREEQYNSTYRVVSVLTVLHQDWLNGKEYKCKVSNKALPAPIEKTISKAKGQPREPQVYTLPPSREEMTKNQVSLTCLVKGFYPSDIAVEWESNGQPENNYKTTPPVLDSDGSFFLYSRLTVDKSRWQQGNVFSCSVMHEALHNHYTQKSLSLSPGK
light 2: AQVLTQTPSSVSAAVGGTVTINCQASQSISNLLAWYQQKPGQRPRLLIYRASTLASGVPSRFKGSGSGTEFTLTISDLESEDAATYYCAGGFPGLDTGATFGGGTEAVVTRTVAAPSVFIFPPSDEQLKSGTASVVCLLNNFYPREAKVQWKVDNALQSGNSQESVTEQDSKDSTYSLSSTLTLSKADYEKHKVYACEVTHQGLSSPVTKSFNRGEC
B2: CD40-001-FEALxCD137-011-FEAR (bispecific antibody, human IgG1, kappa)
heavy 1: B1 heavy 1
light 1: B1 light 1
heavy 2: QSLEESGGRLVTPGTPLTLTCTVSGIDLSSYHMCWVRQAPGKGLEYIGYIAYGGNTYYANWAKGRFTISKTSTTVDLRITSPTTEDTATYFCARGYSEDSYWGLWGPGTLVTVSSASTKGPSVFPLAPSSKSTSGGTAALGCLVKDYFPEPVTVSWNSGALTSGVHTFPAVLQSSGLYSLSSVVTVPSSSLGTQTYICNVNHKPSNTKVDKRVEPKSCDKTHTCPPCPAPEFEGGPSVFLFPPKPKDTLMISRTPEVTCVVVAVSHEDPEVKFNWYVDGVEVHNAKTKPREEQYNSTYRVVSVLTVLHQDWLNGKEYKCKVSNKALPAPIEKTISKAKGQPREPQVYTLPPSREEMTKNQVSLTCLVKGFYPSDIAVEWESNGQPENNYKTTPPVLDSDGSFFLYSRLTVDKSRWQQGNVFSCSVMHEALHNHYTQKSLSLSPGK
light 2: AYDMTQTPASVEAAVGGTVTIKCQASQNIENYLAWYQQKPGQPPKLLIYDTSKLTSGVPSRFSGSGSGTDFTLTISGVQSDDAATYYCQQDYGIIFVDNIFGGGTEVVVKRTVAAPSVFIFPPSDEQLKSGTASVVCLLNNFYPREAKVQWKVDNALQSGNSQESVTEQDSKDSTYSLSSTLTLSKADYEKHKVYACEVTHQGLSSPVTKSFNRGEC
B3: CD40-001-FEALxCD137-012-FEAR (bispecific antibody, human IgG1, kappa)
heavy 1: B1 heavy 1
light 1: B1 light 1
heavy 2: QSVEESGGRLVTPGTPLTLTCTVSGFSLSDYYMTWVRQAPGKGLEYIGIMSGSGSTYYASWAKGRFTISKTSSTTLELKITSPTTEDTAIYFCARDGDYAGWGYATGAFDPWGPGTLVTVSSASTKGPSVFPLAPSSKSTSGGTAALGCLVKDYFPEPVTVSWNSGALTSGVHTFPAVLQSSGLYSLSSVVTVPSSSLGTQTYICNVNHKPSNTKVDKRVEPKSCDKTHTCPPCPAPEFEGGPSVFLFPPKPKDTLMISRTPEVTCVVVAVSHEDPEVKFNWYVDGVEVHNAKTKPREEQYNSTYRVVSVLTVLHQDWLNGKEYKCKVSNKALPAPIEKTISKAKGQPREPQVYTLPPSREEMTKNQVSLTCLVKGFYPSDIAVEWESNGQPENNYKTTPPVLDSDGSFFLYSRLTVDKSRWQQGNVFSCSVMHEALHNHYTQKSLSLSPGK
light 2: AAVLTQTPSPVSAAVGGTVTISCQASQSVVGNSLLSWFQKKPGQPPKLLIYSASSLASGVPSRFKGSGSGTQFTLTISDLESDDAATYYCTGRYNSDTDTFVFGGGTEVVVKRTVAAPSVFIFPPSDEQLKSGTASVVCLLNNFYPREAKVQWKVDNALQSGNSQESVTEQDSKDSTYSLSSTLTLSKADYEKHKVYACEVTHQGLSSPVTKSFNRGEC
B4: CD40-001-FEALxCD137-010-FEAR (bispecific antibody, human IgG1, kappa)
heavy 1: B1 heavy 1
light 1: B1 light 1
heavy 2: QSVEESGGRLVTPGTPLTLTCTVSGFSLSTYAMIWVRQAPGKGLEWIGVVYDNGYISHATWVKGRFTISKTSTTVGLEITSPTTEDTATYFCARSADGSWSTYFNLWGQGTLVTVSSASTKGPSVFPLAPSSKSTSGGTAALGCLVKDYFPEPVTVSWNSGALTSGVHTFPAVLQSSGLYSLSSVVTVPSSSLGTQTYICNVNHKPSNTKVDKRVEPKSCDKTHTCPPCPAPEFEGGPSVFLFPPKPKDTLMISRTPEVTCVVVAVSHEDPEVKFNWYVDGVEVHNAKTKPREEQYNSTYRVVSVLTVLHQDWLNGKEYKCKVSNKALPAPIEKTISKAKGQPREPQVYTLPPSREEMTKNQVSLTCLVKGFYPSDIAVEWESNGQPENNYKTTPPVLDSDGSFFLYSRLTVDKSRWQQGNVFSCSVMHEALHNHYTQKSLSLSPGK
light 2: DIVMTQTPASVEAAVGGTVTIKCQASESISNYLAWYQQKPGQPPKLLIYKASTLASGVSSRFKGSGSGTEFTLTISDLESADAATYYCQTNYCCSSSDNGFAFGGGTEVVVKRTVAAPSVFIFPPSDEQLKSGTASVVCLLNNFYPREAKVQWKVDNALQSGNSQESVTEQDSKDSTYSLSSTLTLSKADYEKHKVYACEVTHQGLSSPVTKSFNRGEC
B5: CD40-001-FEALxCD137-002-FEAR (bispecific antibody, human IgG1, kappa)
heavy 1: B1 heavy 1
light 1: B1 light 1
heavy 2: QSVEESGGRLVTPGTPLTLTCTVSGFSLTYYAVTWVRQPPGKGLEWIGVIYDNGATAFATWAKGRFTMSKNSTTVALKVTSPTTEDTATYFCARSANNAWSTYSNLWGQGTLVTVSSASTKGPSVFPLAPSSKSTSGGTAALGCLVKDYFPEPVTVSWNSGALTSGVHTFPAVLQSSGLYSLSSVVTVPSSSLGTQTYICNVNHKPSNTKVDKRVEPKSCDKTHTCPPCPAPEFEGGPSVFLFPPKPKDTLMISRTPEVTCVVVAVSHEDPEVKFNWYVDGVEVHNAKTKPREEQYNSTYRVVSVLTVLHQDWLNGKEYKCKVSNKALPAPIEKTISKAKGQPREPQVYTLPPSREEMTKNQVSLTCLVKGFYPSDIAVEWESNGQPENNYKTTPPVLDSDGSFFLYSRLTVDKSRWQQGNVFSCSVMHEALHNHYTQKSLSLSPGK
light 2: DIVMTQTPSSVSAAVGGTVTINCQASEDISSYLSWYQQKLGQPPKLLIYKASTLESGVPSRFKGSGSGTEYTLTISDLESDDAATYYCQSYYSGSISGYGFVFGGGTGVVVKRTVAAPSVFIFPPSDEQLKSGTASVVCLLNNFYPREAKVQWKVDNALQSGNSQESVTEQDSKDSTYSLSSTLTLSKADYEKHKVYACEVTHQGLSSPVTKSFNRGEC
B6: CD40-001-FEALxCD137-009-FEAR (bispecific antibody, human IgG1, kappa)
heavy 1: B1 heavy 1
light 1: B1 light 1
heavy 2: QSLEESGGRLVTPGTPLTLTCTVSGFSLNDYWMSWVRQAPGKGLEWIGYIDVGGSLYYASWAKGRFTISRTSTTVDLKMTSLTTEDTATYFCARGGLTYGFDLWGPGTLVTVSSASTKGPSVFPLAPSSKSTSGGTAALGCLVKDYFPEPVTVSWNSGALTSGVHTFPAVLQSSGLYSLSSVVTVPSSSLGTQTYICNVNHKPSNTKVDKRVEPKSCDKTHTCPPCPAPEFEGGPSVFLFPPKPKDTLMISRTPEVTCVVVAVSHEDPEVKFNWYVDGVEVHNAKTKPREEQYNSTYRVVSVLTVLHQDWLNGKEYKCKVSNKALPAPIEKTISKAKGQPREPQVYTLPPSREEMTKNQVSLTCLVKGFYPSDIAVEWESNGQPENNYKTTPPVLDSDGSFFLYSRLTVDKSRWQQGNVFSCSVMHEALHNHYTQKSLSLSPGK
light 2: DIVMTQTPASVSEPVGGTVTINCQASEDISSYLAWYQQKPGQRPKRLIYGASDLASGVPSRFSASGSGTEYALTISDLESADAATYYCHYYATISGLGVAFGGGTEVVVKRTVAAPSVFIFPPSDEQLKSGTASVVCLLNNFYPREAKVQWKVDNALQSGNSQESVTEQDSKDSTYSLSSTLTLSKADYEKHKVYACEVTHQGLSSPVTKSFNRGEC

For the first experiment, the target named is Human CD137 (TNR9_Human) (human, UniProt Q07011 24-255). The experiment can be described thus: cell-based or functional assay.
Sequence of Human CD137 (TNR9_Human) (Q07011 24-255): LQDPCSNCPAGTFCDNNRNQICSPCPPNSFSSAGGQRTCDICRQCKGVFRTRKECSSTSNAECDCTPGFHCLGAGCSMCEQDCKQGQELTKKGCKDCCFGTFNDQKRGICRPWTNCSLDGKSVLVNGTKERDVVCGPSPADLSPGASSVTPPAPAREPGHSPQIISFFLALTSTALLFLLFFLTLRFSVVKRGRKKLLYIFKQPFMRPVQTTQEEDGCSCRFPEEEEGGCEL
Turning to B1, the “luciferase activity (RLU) of NF-KB/293/GFP-Luc cells transduced with CD137, incubated with K562_CD40” value is around 100 ng/mL.
On to B2, for which the “luciferase activity (RLU) of NF-KB/293/GFP-Luc cells transduced with CD137, incubated with K562_CD40” value is around 100 ng/mL.
Same read-out and setting: next, B3: around 100 ng/mL.
On the same count and under the same terms, next, B4: around 100 ng/mL; B5: around 100 ng/mL.
Consider B6, for which the “EC50 for induction of T-cell proliferation (antigen-specific CD8+ T-cell assay, proliferation index curves)” value came to 0.03 µg/mL and the “luciferase activity (RLU) of NF-KB/293/GFP-Luc cells transduced with CD137, incubated with K562_CD40” value is around 100 ng/mL.

The next experiment deals with Human CD40 (human, UniProt P25942 21-277). The experiment in a line: cell-based or functional assay.
Sequence of Human CD40 (P25942 21-277): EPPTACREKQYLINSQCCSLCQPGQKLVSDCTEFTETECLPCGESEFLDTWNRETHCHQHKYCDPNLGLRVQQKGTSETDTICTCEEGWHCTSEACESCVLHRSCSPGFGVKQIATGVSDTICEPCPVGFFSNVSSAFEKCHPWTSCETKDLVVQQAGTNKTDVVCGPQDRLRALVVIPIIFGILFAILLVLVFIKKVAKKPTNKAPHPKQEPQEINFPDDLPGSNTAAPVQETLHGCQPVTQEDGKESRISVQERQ
As to B1, the “luciferase activity (RLU) of NF-KB/293/GFP-Luc cells transduced with CD40, incubated with K562_CD137” value was around 100 ng/mL.
Take B2: the “luciferase activity (RLU) of NF-KB/293/GFP-Luc cells transduced with CD40, incubated with K562_CD137” value was around 100 ng/mL.
Turning to B3, the “luciferase activity (RLU) of NF-KB/293/GFP-Luc cells transduced with CD40, incubated with K562_CD137” value was around 100 ng/mL.
The same measure, in the same setting: in the case of B4 it was around 100 ng/mL.
B5: the “luciferase activity (RLU) of NF-KB/293/GFP-Luc cells transduced with CD40, incubated with K562_CD137” value was around 100 ng/mL.
For the molecule B6, the “luciferase activity (RLU) of NF-KB/293/GFP-Luc cells transduced with CD40, incubated with K562_CD137” value is around 100 ng/mL.
